Laboratory results from doi:10.1101/2022.10.12.511839 (bioRxiv, 2022).

T1: human Scribble PDZ3 domain (1005-1094) (human, UniProt Q14160 1005-1094)
T1 sequence (looked up): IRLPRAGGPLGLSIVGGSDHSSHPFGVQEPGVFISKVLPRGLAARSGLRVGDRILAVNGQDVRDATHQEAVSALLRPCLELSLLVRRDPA


Assays:
[1] = target: human Scribble PDZ1 domain (728-815) (human, UniProt Q14160 728-815); assay: ITC
[2] = target: T1, human Scribble PDZ3 domain (1005-1094); assay: ITC

human Scribble PDZ1 domain (728-815), sequence (Q14160 728-815): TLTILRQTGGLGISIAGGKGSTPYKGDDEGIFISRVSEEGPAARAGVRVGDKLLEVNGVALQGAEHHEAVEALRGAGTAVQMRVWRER

Row | Binder | binding result [1] | binding result [2] | Kd [1] [µM]
1 | WRRPRTETQV [HPV31 E6 C-terminal PBM 10-mer peptide (WRRPRTETQV)] | binds | binds | –
2 | RLQRRRETQV [HPV18 E6 C-terminal PBM 10-mer peptide (RLQRRRETQV)] | – | binds | –
3 | TSRQATESTV [HPV66 E6 C-terminal PBM 10-mer peptide (TSRQATESTV)] | binds | binds | –
4 | SSRTRRETQL [HPV16 E6 C-terminal PBM 10-mer peptide (SSRTRRETQL)] | – | – | 9.4
5 | RTRQRNETQV [HPV51 E6 C-terminal PBM 10-mer peptide (RTRQRNETQV)] | binds | binds | –
6 | WRSRRRETAL [HPV33 E6 C-terminal PBM 10-mer peptide (WRSRRRETAL)] | binds | binds | –
7 | RRRIRRETQV [HPV70 E6 C-terminal PBM 10-mer peptide (RRRIRRETQV)] | binds | binds | –
